Where no end group is shown, it is not given here.
T1: LigIV DBD (Met1-Ile240) (UniProt P49917 1-240)
T1 construct: source: E. coli Rosetta2 (DE3), purified (Ni-NTA, TEV, SEC); not shown: His tag, N-terminal, cleaved
T1 sequence (looked up): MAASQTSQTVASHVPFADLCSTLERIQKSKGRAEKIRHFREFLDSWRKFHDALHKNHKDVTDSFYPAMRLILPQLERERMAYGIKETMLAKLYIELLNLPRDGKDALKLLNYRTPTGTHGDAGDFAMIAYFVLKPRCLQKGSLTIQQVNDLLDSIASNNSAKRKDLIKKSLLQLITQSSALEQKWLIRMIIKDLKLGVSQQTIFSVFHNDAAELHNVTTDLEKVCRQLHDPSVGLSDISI

B1: FAM-labeled Artemis 486-496 peptide (peptide)
peptide: {FAM}-VPQWEVFFKRN
notes: Artemis, residues 486-496; also called Artemis peptide; source: synthetic peptide (GenScript)
B2: FAM-labeled Ku70 1-11 peptide (peptide)
peptide: {FAM}-MSGWESYYKTE
notes: Ku70, residues 1-11; The results call the modelled stretch 'Ku70 CTR', but the peptide is residues 1-11; also called Ku70 peptide; source: synthetic peptide (GenScript)

Molecular target: T1, LigIV DBD (Met1-Ile240)
Assay: fluorescence polarisation; 25 nM FAM-labeled peptide constant, LigIV DBD 5 nM–200 μM; 15 mM Tris pH 7.5, 65 mM NaCl, 0.7 mM βME; 20 min
Settings: both partners purified

Binder | Kd
B1 | 1.5 to 4 µM
B2 | 29 to 30 µM
